Where two headings read alike, the source gives them in different places.
Assays:
[1] = target: human serum albumin (HSA) (Homo sapiens) (UniProt P02768); conditions: ELISA, SB18, 37 C
KRAS G12V G12V, P01116-2 = conditions: Nap-dU at n (6) positions [28,30,39,40,41,45,46,47,54,57]; ELISA, SB18, 37 C
[2] = target: transferrin (TF) (Homo sapiens) (UniProt P02787); conditions: Nap-dU at n (6) positions; ELISA, SB18, 37 C
KRAS G12D G12D, P01116-2 [3] = conditions: Nap-dU at n (6) positions; ELISA, SB18, 37 C
[4] = target: transferrin (TF) (Homo sapiens) (UniProt P02787); conditions: ELISA, SB18, 37 C
KRAS G12D G12D, P01116-2 [5] = conditions: ELISA, SB18, 37 C
KRAS G12D G12D, P01116-2 [6] = assay: BLI; conditions: Nap-dU at n (6) positions [4,9,13,19,26,27,28,30,39]; SB18, 37 C, immobilised biotin ligand
KRAS G12C G12C, P01116-2 = conditions: Nap-dU at n (6) positions [4,9,13,19,26,27,28,30,39]; ELISA, SB18, 37 C; text p364 misprints unit/protein
[7] = target: CD3 delta/epsilon heterodimer (UniProt P04234+P07766); conditions: Nap-dU at n (6) positions [Nap-dU at 1,6,7,8,9,12,18,19,20,23,32]; ELISA, SB18, 37 C
[8] = Nap-dU at n (6) positions [Nap-dU at 2,6,8,9,11,16,17,22,24,27,35]
[9] = Nap-dU at n (6) positions [4,9,13,19,26,27,28,30,39]
[10] = Nap-dU at n (6) positions [5,10,14,20,27,28,29,31,40]
[11] = Nap-dU at n (6) positions [22,28,35,36,37,49]
[12] = Nap-dU at n (6) positions [17,23,30,31,32,44]

Sequence of transferrin (TF) (Homo sapiens) (P02787 20-698): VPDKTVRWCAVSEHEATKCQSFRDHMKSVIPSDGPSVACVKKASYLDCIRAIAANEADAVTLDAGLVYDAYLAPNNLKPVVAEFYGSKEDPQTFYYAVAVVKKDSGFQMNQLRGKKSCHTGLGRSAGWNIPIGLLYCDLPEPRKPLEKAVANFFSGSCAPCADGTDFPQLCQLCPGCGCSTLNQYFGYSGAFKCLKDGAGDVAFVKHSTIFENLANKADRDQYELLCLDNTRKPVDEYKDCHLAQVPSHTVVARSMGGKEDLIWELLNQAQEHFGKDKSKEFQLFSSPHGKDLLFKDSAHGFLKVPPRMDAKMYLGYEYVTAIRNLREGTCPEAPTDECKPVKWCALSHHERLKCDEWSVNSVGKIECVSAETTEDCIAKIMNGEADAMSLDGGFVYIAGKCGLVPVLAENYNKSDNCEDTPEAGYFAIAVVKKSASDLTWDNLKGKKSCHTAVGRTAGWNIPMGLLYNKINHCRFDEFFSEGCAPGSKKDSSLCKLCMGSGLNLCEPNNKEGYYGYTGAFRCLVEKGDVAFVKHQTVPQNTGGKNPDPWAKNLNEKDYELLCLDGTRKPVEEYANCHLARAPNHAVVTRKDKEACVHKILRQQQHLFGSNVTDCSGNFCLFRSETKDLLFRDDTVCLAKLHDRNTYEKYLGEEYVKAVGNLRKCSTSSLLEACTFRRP
Sequence of CD3 delta/epsilon heterodimer (P04234 22-105, stated change not applied, chain 1 of 2): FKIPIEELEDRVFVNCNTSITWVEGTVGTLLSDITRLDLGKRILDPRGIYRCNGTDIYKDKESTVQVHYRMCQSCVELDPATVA
Sequence of CD3 delta/epsilon heterodimer (P07766 23-126, stated change not applied, chain 2 of 2): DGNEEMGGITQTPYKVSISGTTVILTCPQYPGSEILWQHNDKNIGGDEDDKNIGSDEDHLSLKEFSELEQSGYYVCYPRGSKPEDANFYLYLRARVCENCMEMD

GAGTGACCGTCTGCCTGAGCAGGAGGATGTGACACAACTTTGCATTTCAAGCCTGATCAGCCACACCACCAGCC [AV001]
Kd ([1]; Nap-dU at n (6) positions [28,30,39,40,41,45,46,47,54,57]): 11.2 nM | Kd (KRAS G12V G12V, P01116-2): 58 nM

CAGGNCGAGCNGNACGCGNGNGNGACCNGAAGAC [TD013]
Kd [2]: 646 nM | Kd (KRAS G12D G12D, P01116-2 [3]): 1550 nM

ATGCCTCTTCTGCAGTTACGGTGTGATCGCCCAATAGCAGCCAC [TD012]
Kd [4, 8]: 14.9 nM | Kd (KRAS G12D G12D, P01116-2 [5]; [8]): 1310 nM

GACTAGCATAAGTCCGGATGGCAGCTTTATGCCGACCAT [AD005]
Kd (KRAS G12D G12D, P01116-2 [6]): 35.5 nM | Kd (KRAS G12D G12D, P01116-2 [5]; [9]): 22.9 nM | Kd [1, 9]: 122 nM | Kd (KRAS G12C G12C, P01116-2): 2.5 nM

GGACTAGCATAAGTCCGGATGGCAGCTTTATGCCGACCAT [TD003]
Kd [4, 10]: 141 nM | Kd (KRAS G12D G12D, P01116-2 [5]; [10]): 2720 nM

TGCCCTTTTAATCCGACTTTAATGGCCACGCTCAC [AA004]
Kd [7]: 10.2 nM | Kd ([1]; Nap-dU at n (6) positions [Nap-dU at 1,6,7,8,9,12,18,19,20,23,32]): 9.54 nM

GAGTGACCGTCTGCCTGAAAGTCCGGATGGCAGCTTTACAGGCAGAACTAACG [TD006]
Kd [4, 11]: 968 nM | Kd (KRAS G12D G12D, P01116-2 [5]; [11]): 628 nM

ACCGTCTGCCTGAAAGTCCGGATGGCAGCTTTACAGGCAGAACTAACG [TD007]
Kd [4, 12]: 431 nM | Kd (KRAS G12D G12D, P01116-2 [5]; [12]): 2120 nM

Reference: US20230220399
